Measured values taken from patent publication US6794178.

Target: microtubules

B1: Bacterially expressed and purified KinI-3 protein (protein)
chain: DCDIPIIQRISHVSGYNYGIPHSCIRQNTSEKQNPWTEMEKIRVCVRKRPLGMREVRRGEINIITVEDKETLLVHEKKEAVDLTQYILQHVFYFDEVFGEACTNQDVYMKTTHPLIQHIFNGGNATCFAYGQTGAGKTYTMIGTHENPGLYALAAKDIFRQLEVSQPRKHLFVWISFYEIYCGQLYDLLNRRKRLFAREDSKHMVQIVGLQELQVDSVELLLEVILKGSKERSTGATGVNADSSRSHAVIQIQIKDSAKRTFGRISFIDLAGSERAADARDSDRQTKMEGAEINQSLLALKECIRALDQEHTHTPFRQSKLTQVLKDSFIGNAKTCMIANISPSHVATEHTLNTLRYADRVKEL
- microtubule depolymerization (tubulin in supernatant after centrifugation, SDS-PAGE), AL + ATP/MT: Track 3 shows an increase in tubulin in the supernatant that indicates depolymerization in the presence of ATP
- microtubule depolymerization (tubulin in supernatant), AL + MT + ADP: No depolymerization was observed ... in the presence of ADP (track 6)
- microtubule depolymerization (tubulin in supernatant), AL + MT/AMPPNP: No depolymerization was observed ... in the presence of AMP-PNP (track 5)
- microtubule depolymerization (tubulin in supernatant), AL treated by Apyrase + MT: No depolymerization was observed in the absence of ATP (track 4)
